Results: patent US20180222958A1 (ONCOMED PHARMACEUTICALS, published 2018)

Columns and labels:
[1] = target: T1, human LTβR ecd, CD4TM and GFP (human, UniProt P36941 31-227); experiment: flow cytometry on HEK 293T cells transiently transfected with human LTβR ecd-CD4TM-GFP (row 'hLTBR GFP'); '0.5 ug/ml' printed at the upper left of the figure; APC-conjugated Fc secondary
T1 construct: extracellular domain; also called hLTβR; hLThR-GFP; not shown: CD4 transmembrane domain and GFP fused after the extracellular domain
Procedure: (§1) To test the binding of the different c-terminal human lymphotoxin heterotrimer constructs to human and mouse LTβR, HEK 293T cells were transiently transfected with cDNA expression vectors encoding cDNA for human or mouse LTβR ecd, CD4TM and GFP. Cells were then incubated with the various human lymphotoxin constructs 363F2, 363F3, or 363F4, washed and stained with APC-conjugated Fc secondary antibody. Mouse (deglycosylated) IgG1 Fc-mouse lymphotoxin-αββ heterotrimer fusion protein 363F1 was also tested. Binding of the lymphotoxin constructs was then assessed by flow cytometry using a Canto II FACS instrument (BD Biosciences) and analyzed using FlowJo software.

[2] = target: T2, membrane-bound extracellular domain of mouse LTβR (mLTβR-CD4TM-GFP) (mouse, UniProt P50284 31-223); experiment: flow cytometry on HEK 293T cells transiently transfected with mouse LTβR ecd-CD4TM-GFP (row 'mLTBR GFP'); '0.5 ug/ml' printed at the upper left of the figure; APC-conjugated Fc secondary
T2 construct: extracellular domain; also called mouse LTβR ecd, CD4TM and GFP; mLThR-GFP; not shown: CD4 transmembrane domain and GFP fused after the extracellular domain
Procedure: as §1

T2 sequence (P50284 31-223): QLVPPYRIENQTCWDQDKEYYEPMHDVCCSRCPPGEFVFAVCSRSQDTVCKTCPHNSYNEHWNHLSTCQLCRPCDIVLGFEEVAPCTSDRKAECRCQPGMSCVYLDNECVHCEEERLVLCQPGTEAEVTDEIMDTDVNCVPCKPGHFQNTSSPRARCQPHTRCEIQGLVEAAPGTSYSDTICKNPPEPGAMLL
T1 sequence (P36941 31-227): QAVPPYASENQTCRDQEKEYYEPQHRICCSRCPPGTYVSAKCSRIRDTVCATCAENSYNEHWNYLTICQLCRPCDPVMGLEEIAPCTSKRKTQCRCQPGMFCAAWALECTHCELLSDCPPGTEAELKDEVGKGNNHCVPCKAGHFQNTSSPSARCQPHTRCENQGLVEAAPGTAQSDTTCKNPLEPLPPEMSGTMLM

B1: 363F1 mFc-mLTαββ (Fc fusion)
chain: GCKPCICTVPEVSSVFIFPPKPKDVLTITLTPKVTCVVVDISKDDPEVQFSWFVDDVEVHTAQTQPREEQFASTFRSVSELPIMHQDWLNGKEFKCRVNSAAFPAPIEKTISKTKGRPKAPQVYTIPPPKEQMAKDKVSLTCMITDFFPEDITVEWQWNGQPAENYKNTQPIMDTDGSYFVYSKLNVQKSNWEAGNTFTCSVLHEGLHNHHTEKSLSHSPGKKPAAHLVGYPSKQNSLLWRASTDRAFLRHGFSLSNNSLLIPTSGLYFVYSQVVFSGESCSPRAIPTPIYLAHEVQLFSSQYPFHVPLLSAQKSVYPGLQGPWVRSMYQGAVFLLSKGDQLSTHTDGISHLHFSPSSVFFGAFALLNPELPAAHLIGAWMSGQGLSWEASQEEAFLRSGAQFSPTHGLALPQDGVYYLYCHVGYRGRTPPAGRSRARSLTLRSALYRAGGAYGRGSPELLLEGAETVTPVVDPIGYGSLWYTSVGFGGLAQLRSGERVYVNISHPDMVDYRRGKTFFGAVMVGLNPELPAAHLIGAWMSGQGLSWEASQEEAFLRSGAQFSPTHGLALPQDGVYYLYCHVGYRGRTPPAGRSRARSLTLRSALYRAGGAYGRGSPELLLEGAETVTPVVDPIGYGSLWYTSVGFGGLAQLRSGERVYVNISHPDMVDYRRGKTFFGAVMVG
notes: also called mouse LTαββ; mouse (deglycosylated) IgG1 Fc-mouse lymphotoxin-αββ heterotrimer fusion protein
MFI [1]: 2260 | MFI [2]: 4740
